Results reported in article PMC7280208, “Integral approach to biomacromolecular structure by analytical-ultracentrifugation and small-angle scattering” (Communications Biology, 2020).

Molecular target: T1, PUB domain of peptide:N-glycanase (UniProt Q9JI78 1-119)
T1 construct: PUB domain of peptide:N-glycanase (PNGase); molecular weight 12.5 kDa as printed in the methods; PDB 2D5U is, as I recall, the mouse protein; The supplement's 1.34 mg/mL for 100 µM implies 13.4 kDa, not the 12.5 kDa of the methods; also called PNGase-PUB; component B; source: purified, dialyzed in 10 mM sodium phosphate buffer (pH 7.0) or PBS
T1 sequence: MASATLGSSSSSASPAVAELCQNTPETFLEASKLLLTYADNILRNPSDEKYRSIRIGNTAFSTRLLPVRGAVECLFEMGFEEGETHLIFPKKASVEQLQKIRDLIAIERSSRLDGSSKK
Test: AUC; sedimentation equilibrium (SE-AUC) of the mixture in 10 mM sodium phosphate buffer (pH 7.0), 25 °C; [hHR23b-UBL] = [PNGase-PUB] = 100, 75 and 50 µM; 20000, 30000 and 35000 rpm; absorbance optics; global fit with the association-dissociation equilibrium model A + B = AB (eq. 7, SEDPHAT)
Conditions: both partners purified

B1: ubiquitin-like domain of the proteasome shuttle factor hHR23b (domain or fragment)
chain: not shown
notes: ubiquitin-like (UBL) domain of hHR23b; molecular weight 9.5 kDa as printed; also called hHR23b-UBL; component A; source: purified, dialyzed in 10 mM sodium phosphate buffer (pH 7.0) or PBS
Question: For B1, which Kd is on record?
Answer: Its Kd is 227 ± 28 µM.
